According to paper PMC12421854:

Tests used:
[1] = molecular target: ForJ (Streptomyces formicae); experiment: non-reducing SDS-PAGE; purified ForJ exposed to increasing DTT; no beta-mercaptoethanol and no boiling before loading; monomers and dimers
[2] = molecular target: ForJ (Streptomyces formicae); experiment: non-reducing SDS-PAGE; purified ForJ exposed to increasing H2O2; no beta-mercaptoethanol and no boiling before loading; dimers to dimer of dimers
[3] = molecular target: ForJ (Streptomyces formicae); experiment: mass photometry; ReFeyn mass photometry of purified ForJ reduced with TCEP; monomers to dimer
[4] = molecular target: ForJ (Streptomyces formicae); experiment: mass photometry; ReFeyn mass photometry of purified ForJ without reducing agent (oxidized); 38 kDa and 76 kDa states both present; dimers to dimer of dimers

ForJ (natural protein)
stoichiometry N [1]: 2
stoichiometry N [2]: 4
stoichiometry N [3]: 2
stoichiometry N [4]: 4
